Test results published in article PMC12241633, “Irinotecan alleviates chemoresistance to anthracyclines through the inhibition of AARS1-mediated BLM lactylation and homologous recombination repair” (Signal Transduction and Targeted Therapy, 2025).
Values belong to the binder of their own block, whether it stands above or below them.

Target: T1, purified human MIB1 protein (human, UniProt Q86YT6 1-1006)
T1 construct: MIB1, human; source: E. coli BL21 (DE3), pET28a-sumo, purified (AKTA pure chromatography)
T1 sequence (Q86YT6 whole entry): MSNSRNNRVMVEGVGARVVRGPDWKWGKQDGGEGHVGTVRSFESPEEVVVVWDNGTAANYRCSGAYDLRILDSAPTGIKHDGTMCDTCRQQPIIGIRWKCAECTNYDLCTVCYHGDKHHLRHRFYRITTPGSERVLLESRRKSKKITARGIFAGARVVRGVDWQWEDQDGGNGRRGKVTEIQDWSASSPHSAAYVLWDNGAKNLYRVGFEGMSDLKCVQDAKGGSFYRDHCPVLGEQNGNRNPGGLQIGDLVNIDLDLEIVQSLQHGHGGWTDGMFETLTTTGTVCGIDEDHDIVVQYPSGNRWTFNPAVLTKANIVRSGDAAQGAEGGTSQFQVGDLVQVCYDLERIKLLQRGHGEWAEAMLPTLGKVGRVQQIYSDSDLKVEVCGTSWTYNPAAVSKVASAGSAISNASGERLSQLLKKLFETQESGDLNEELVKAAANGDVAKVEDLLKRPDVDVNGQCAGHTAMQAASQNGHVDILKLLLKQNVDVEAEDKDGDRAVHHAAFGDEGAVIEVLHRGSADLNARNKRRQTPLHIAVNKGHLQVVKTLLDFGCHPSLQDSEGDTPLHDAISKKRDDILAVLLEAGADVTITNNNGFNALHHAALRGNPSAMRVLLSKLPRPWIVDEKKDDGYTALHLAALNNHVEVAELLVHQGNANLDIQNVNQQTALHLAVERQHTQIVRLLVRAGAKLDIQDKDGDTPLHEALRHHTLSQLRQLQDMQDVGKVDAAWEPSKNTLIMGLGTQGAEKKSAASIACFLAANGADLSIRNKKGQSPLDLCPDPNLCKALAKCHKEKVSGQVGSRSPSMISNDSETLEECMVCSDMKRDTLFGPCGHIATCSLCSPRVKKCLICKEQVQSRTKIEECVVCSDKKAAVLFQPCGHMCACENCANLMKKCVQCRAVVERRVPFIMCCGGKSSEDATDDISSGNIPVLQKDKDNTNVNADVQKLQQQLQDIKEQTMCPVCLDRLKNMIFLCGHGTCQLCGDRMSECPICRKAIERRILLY
Test: SPR; Biacore T200, CM5 chip, amine coupling in 10 mM sodium acetate pH 4.0 to 5000 RU, 25 °C, running buffer PBS, 0.05% Tween-20, 1% DMSO; multicycle kinetics, 1:1 Langmuir fit; which of the two proteins was immobilised is not stated
Details: both partners purified

Kd: 26.8 nM
B1: purified human BLM-K24R protein (natural protein)
chain: not shown
notes: BLM, human, K24R; also called K24R BLM; BLM-K24R mutant; source: E. coli BL21 (DE3), pET28a-sumo, purified (AKTA pure chromatography)

Kd: 121 nM
B2: purified human BLM-WT protein (natural protein)
chain: not shown
notes: BLM, human; also called WT BLM; source: E. coli BL21 (DE3), pET28a-sumo, purified (AKTA pure chromatography)
